Target: T1, B. burgdorferi RecA (Borrelia burgdorferi B31, UniProt Q59180 1-365)
T1 sequence: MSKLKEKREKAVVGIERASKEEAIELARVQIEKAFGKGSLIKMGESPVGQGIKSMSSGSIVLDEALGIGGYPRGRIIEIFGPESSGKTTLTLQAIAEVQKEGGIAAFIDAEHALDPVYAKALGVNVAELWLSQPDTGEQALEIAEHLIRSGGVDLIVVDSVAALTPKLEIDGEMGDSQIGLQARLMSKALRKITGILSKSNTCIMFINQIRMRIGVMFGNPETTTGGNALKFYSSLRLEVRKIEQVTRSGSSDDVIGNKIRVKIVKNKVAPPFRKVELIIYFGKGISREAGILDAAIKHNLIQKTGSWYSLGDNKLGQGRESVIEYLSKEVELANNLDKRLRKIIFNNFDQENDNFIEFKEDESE
Test: EMSA with glutaraldehyde protein-protein crosslinking; 2 mM Mg2+, 2 mM ATP; affinity increased by ATP, discrete shift and well shifts; 25 mM HEPES pH 7.6, 2 mM MgCl2, 1 mM DTT, 50 mM NaCl, +/- 2 mM ATP; 10 nM DNA molecules; 30°C 5 min, then 0.033% glutaraldehyde 5 min at 20°C/room temperature
Details: protein: recombinant; tags: His tag (pET15b NdeI/BamHI, Ni-NTA; N-terminal implied, removal not mentioned); single strand

B1: OGCB396 95 nt ssDNA (ssDNA)
DNA: TGCAGGCATGCAAGCTTGGCGTAATCATGGTCATAGCTGTTTCCTGTGTGAAATTGTTATCCGCTCACAATTCCACACAACATACGAGCCGGAAG
**Q.** Does B1 bind?
**A.** binds

Reference: publication PMC5663514, “Biochemical characterization of Borrelia burgdorferi’s RecA protein”
